Experimental data reported in patent US20110294144.

Test system: recombinant tau protein (Wako Pure Chemical Industries, Ltd.)

With recombinant PRKX protein (Invitrogen) the “S214 phosphorylation of tau, in vitro kinase reaction of the two recombinant proteins, Western blot” value was “the amount of S214 phosphorylation was enhanced by the addition of ATP as compared to the control without addition of ATP”.
